Assay results published in paper PMC7956486, “Conversion of Racemic Unnatural Amino Acids to Optically Pure Forms by a Coupled Enzymatic Reaction” (Molecules, 2021).

Experiments:
TtAT = target: T1, TtAT (Thermus thermophilus, UniProt Q75WK2); test: PLP to PMP conversion, absorbance decrease at […] nm; assay type: biochemical; details: 50 mM HEPES-NaOH pH 8.0, 0.1 M KCl, 25 °C, 20 μM enzyme, no amine acceptor; racemate used as amine donor
T1 construct: gene TthHB5018_10190; C-terminal His6 tag, amplified from genomic DNA, plasmid pET20b-ttGlnAT, expressed in E. coli BL21(DE3), Ni-NTA purified
T1 sequence (Q75WK2 entry or part of it): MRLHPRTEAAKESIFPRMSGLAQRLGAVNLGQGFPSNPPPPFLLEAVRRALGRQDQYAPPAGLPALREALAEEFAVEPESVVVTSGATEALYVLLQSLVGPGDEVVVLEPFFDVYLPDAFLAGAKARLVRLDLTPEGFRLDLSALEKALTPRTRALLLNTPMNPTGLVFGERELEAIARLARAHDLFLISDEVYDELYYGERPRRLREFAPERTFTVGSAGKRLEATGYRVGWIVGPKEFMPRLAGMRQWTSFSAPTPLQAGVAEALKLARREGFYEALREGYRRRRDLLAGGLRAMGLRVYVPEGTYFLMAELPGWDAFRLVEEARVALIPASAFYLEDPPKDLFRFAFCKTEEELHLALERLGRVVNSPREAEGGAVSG

purified protein [1] = substrate: NC(Cc1cnc2c(O)cccc2c1)C(=O)O; test: purified protein; assay type: biochemical, Rhodotorula toruloides; details: 75 mM phosphate pH 8.5, 1 mM o-dianisidine, 1 U HRP, 25 °C, 119 nM enzyme, racemate used, value calibrated accordingly
purified protein [2] = substrate: NC(Cc1ccc(-c2ccccn2)nc1)C(=O)O; test: purified protein; assay type: biochemical, Rhodotorula toruloides; details: 75 mM phosphate pH 8.5, 1 mM o-dianisidine, 1 U HRP, 25 °C, 119 nM enzyme, racemate used, value calibrated accordingly
purified protein [3] = substrate: N[C@H](Cc1ccc2ccccc2c1)C(=O)O; test: purified protein; details: 75 mM phosphate pH 8.5, 1 mM o-dianisidine, 1 U HRP, 25 °C, 11.9 nM enzyme

NC(Cc1ccc(-c2ccccn2)nc1)C(=O)O (racemic) [BPA, L-BPA]
PLP to PMP conversion, absorbance decrease at 430 nm (TtAT): This result indicates that TtAT recognizes BPA and HQA as substrates

NC(Cc1cnc2c(O)cccc2c1)C(=O)O (racemic) [HQA, L-HQA]
PLP to PMP conversion, absorbance decrease at 430 nm (TtAT): This result indicates that TtAT recognizes BPA and HQA as substrates

B1: RgDAAO (Rhodotorula toruloides) (protein)
chain: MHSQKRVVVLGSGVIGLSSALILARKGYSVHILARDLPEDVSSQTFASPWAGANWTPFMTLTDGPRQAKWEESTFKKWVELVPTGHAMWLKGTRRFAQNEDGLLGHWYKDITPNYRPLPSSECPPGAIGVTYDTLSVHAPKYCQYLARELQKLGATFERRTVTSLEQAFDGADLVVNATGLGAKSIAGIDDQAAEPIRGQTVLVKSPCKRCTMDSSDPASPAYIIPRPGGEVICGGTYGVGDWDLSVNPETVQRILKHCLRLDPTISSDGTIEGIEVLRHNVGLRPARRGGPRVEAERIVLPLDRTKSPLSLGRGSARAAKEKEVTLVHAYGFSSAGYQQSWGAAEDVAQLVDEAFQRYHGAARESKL
notes: synthetic gene, N-terminal His6 tag, expressed in E. coli, Ni-NTA purified
Km (purified protein [1]): 43 ± 9.4 µM
kcat (purified protein [1]): 2.067 ± 0.00667 s⁻¹
kcat/Km (purified protein [1]): 48300 M⁻¹ s⁻¹
Km (purified protein [2]): 87 ± 10 µM
kcat (purified protein [2]): 7.47 ± 0.333 s⁻¹
kcat/Km (purified protein [2]): 86700 M⁻¹ s⁻¹
Km (purified protein [3]): 52 ± 8.7 µM
kcat (purified protein [3]): 28.5 s⁻¹
kcat/Km (purified protein [3]): 550000 M⁻¹ s⁻¹
